Laboratory results as given in IntAct's records for PubMed 12626503.

B1: Rho guanine nucleotide exchange factor 7 (Mus musculus), Q9ES28-2 (parent)
chain: MNSAEQTVTWLITLGVLESPKKTISDPEVFLQASLKDGVVLCRLLERLLPGTIEKVYPEPRNESECLSNIREFLRACGASLRLETFDANDLYQGQNFNKVLSSLVTLNKVTADIGLGSDSVCARPSSHRIKSFDSLGSQSSHSRTSKLLQSQYRSLDMTDNTNSQLVVRAKFNFQQTNEDELSFSKGDVIHVTRVEEGGWWEGTHNGRTGWFPSNYVREIKPSEKPVSPKSGTLKSPPKGFDTTAINKSYYNVVLQNILETEHEYSKELQSVLSTYLRPLQTSDKLSSANTSYLMGNLEEISSFQQVLVQSLEECTKSPEAQQRVGGCFLSLMPQMRTLYLAYCANHPSAVSVLTEHSEDLGEFMETKGASSPGILVLTTGLSKPFMRLDKYPTLLKELERHMEDYHPDRQDIQKSMTAFKNLSAQCQEVRKRKELELQILTEPIRSWEGDDIKTLGSVTYMSQVTIQCAGSEEKNERYLLLFPNLLLMLSASPRMSGFIYQGKLPTTGMTITKLEDSENHRNAFEISGSMIERILVSCTSQQDLHEWVEHLQKQTKVTSVSNPTIKPHSVPSHTLPSHPLTPSSKHADSKPVALTPAYHTLPHPSHHGTPHTTISWGPLEPPKTPKPWSLSCLRPAPPLRPSAALCYKEDLSKSPKTMKKLLPKRKPERKPSDEEFAVRKSTAALEEDAQILKVIEAYCTSAKTRQTLNSSSRKESAPQVLLPEEEKIIVEETKSNGQTVIEEKSLVDTVYALKDEVQELRQDNKKMKKSLEEEQRARKDLEKLVRKVLKNMNDPAWDETNL
partner: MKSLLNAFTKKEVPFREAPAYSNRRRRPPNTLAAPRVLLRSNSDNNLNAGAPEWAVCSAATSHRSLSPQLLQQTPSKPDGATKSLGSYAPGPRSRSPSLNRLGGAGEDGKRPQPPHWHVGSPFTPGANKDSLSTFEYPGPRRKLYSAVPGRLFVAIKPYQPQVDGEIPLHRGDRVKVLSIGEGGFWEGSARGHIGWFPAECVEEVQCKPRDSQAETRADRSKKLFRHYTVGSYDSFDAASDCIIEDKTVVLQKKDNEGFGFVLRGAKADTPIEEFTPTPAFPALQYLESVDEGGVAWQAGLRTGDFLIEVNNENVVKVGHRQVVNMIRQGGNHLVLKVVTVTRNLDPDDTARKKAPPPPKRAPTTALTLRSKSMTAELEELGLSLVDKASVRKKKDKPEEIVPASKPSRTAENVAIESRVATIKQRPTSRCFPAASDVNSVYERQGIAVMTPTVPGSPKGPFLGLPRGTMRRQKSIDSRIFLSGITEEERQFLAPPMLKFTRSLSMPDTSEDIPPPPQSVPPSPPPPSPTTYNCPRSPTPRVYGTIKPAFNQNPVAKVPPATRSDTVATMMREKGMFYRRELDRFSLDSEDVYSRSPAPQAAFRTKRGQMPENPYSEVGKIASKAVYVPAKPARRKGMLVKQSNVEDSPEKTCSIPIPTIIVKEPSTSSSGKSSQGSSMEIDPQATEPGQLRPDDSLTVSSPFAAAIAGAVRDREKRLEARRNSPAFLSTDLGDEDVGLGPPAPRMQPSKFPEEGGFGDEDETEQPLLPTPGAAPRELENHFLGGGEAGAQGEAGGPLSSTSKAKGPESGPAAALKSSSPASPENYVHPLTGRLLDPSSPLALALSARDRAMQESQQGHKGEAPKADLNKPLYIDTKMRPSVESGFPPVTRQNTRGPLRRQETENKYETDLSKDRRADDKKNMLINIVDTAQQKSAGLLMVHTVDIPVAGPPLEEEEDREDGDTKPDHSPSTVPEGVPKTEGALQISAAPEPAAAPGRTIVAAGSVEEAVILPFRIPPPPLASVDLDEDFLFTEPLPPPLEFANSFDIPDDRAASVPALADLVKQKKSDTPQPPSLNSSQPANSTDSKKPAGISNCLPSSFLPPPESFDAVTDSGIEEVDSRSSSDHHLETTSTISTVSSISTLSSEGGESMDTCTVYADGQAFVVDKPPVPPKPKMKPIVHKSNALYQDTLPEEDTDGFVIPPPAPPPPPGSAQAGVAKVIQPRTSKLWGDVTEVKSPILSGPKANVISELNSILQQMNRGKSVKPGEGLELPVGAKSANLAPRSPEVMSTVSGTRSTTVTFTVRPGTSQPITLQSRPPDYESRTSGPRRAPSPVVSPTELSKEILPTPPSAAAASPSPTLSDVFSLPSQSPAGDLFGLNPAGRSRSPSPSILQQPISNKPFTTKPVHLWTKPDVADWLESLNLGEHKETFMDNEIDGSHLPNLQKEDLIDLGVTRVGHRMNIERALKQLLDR
B2: Rho guanine nucleotide exchange factor 7 (Mus musculus), Q9ES28-2 (parent)
chain: B1 chain

Variants of: B1
Details: with shan2_rat Shank2, Q9QX74

Row | effect of a mutation on the interaction | Variant
1 | disrupting interaction | L646A

Variants of: B2
Details: with shan1_rat Shank1, Q9WV48
shan1_rat Shank1, Q9WV48, sequence (Q9WV48 whole entry): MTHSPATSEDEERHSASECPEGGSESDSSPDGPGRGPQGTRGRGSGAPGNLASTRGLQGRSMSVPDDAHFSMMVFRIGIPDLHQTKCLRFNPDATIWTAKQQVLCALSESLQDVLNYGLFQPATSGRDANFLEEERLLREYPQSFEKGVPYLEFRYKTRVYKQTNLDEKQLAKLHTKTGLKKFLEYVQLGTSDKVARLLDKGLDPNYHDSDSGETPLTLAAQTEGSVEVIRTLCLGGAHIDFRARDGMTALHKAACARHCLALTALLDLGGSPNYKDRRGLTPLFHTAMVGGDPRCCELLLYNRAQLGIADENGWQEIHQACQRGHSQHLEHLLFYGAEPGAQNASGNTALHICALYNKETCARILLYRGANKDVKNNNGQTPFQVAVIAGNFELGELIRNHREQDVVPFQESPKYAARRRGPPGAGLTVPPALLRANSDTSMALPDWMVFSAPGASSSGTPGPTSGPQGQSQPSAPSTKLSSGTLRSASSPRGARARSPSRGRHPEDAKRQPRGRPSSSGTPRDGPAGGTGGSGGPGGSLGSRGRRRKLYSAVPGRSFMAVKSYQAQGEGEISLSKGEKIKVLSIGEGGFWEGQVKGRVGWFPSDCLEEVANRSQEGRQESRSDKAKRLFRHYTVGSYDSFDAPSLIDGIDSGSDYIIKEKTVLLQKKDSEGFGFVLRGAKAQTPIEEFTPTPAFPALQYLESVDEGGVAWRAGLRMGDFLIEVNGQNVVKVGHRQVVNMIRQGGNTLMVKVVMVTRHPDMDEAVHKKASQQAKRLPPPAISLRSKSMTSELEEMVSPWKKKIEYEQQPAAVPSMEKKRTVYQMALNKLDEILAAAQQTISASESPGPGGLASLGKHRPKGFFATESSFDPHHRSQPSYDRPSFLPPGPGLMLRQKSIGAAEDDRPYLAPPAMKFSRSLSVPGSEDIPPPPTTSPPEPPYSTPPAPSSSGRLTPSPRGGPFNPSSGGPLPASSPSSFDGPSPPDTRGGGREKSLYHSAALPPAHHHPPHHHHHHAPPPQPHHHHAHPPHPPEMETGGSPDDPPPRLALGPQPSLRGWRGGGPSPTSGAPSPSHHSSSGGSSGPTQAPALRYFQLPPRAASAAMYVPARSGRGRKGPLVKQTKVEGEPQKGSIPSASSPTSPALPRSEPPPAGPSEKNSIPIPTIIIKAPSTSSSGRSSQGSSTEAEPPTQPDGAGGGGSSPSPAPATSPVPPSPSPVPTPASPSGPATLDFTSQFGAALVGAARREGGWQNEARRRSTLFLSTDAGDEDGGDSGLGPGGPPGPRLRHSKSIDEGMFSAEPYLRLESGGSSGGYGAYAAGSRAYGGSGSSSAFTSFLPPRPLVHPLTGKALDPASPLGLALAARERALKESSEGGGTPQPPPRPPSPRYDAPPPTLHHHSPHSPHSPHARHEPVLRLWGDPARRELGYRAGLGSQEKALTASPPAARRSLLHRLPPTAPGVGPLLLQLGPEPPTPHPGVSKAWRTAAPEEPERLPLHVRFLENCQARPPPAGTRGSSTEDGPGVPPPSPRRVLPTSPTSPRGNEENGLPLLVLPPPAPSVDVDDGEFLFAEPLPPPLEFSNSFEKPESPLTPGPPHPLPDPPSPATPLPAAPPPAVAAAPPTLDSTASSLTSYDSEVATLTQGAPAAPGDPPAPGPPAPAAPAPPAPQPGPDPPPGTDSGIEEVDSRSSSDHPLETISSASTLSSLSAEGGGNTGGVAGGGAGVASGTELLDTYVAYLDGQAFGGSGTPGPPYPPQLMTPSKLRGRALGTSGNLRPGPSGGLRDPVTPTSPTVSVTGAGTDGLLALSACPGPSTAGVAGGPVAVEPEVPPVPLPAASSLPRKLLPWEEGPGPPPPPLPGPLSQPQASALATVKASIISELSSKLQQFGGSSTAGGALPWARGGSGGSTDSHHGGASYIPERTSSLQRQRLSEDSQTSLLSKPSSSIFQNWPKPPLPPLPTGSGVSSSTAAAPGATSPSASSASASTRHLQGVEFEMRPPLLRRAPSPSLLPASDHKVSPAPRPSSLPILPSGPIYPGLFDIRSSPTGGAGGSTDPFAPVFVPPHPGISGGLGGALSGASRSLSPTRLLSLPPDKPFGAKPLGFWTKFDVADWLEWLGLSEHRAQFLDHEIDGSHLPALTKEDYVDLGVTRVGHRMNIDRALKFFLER

Row | effect of a mutation on the interaction | Variant
2 | disrupting interaction | L646A
